Starred links: 1 amine or outer side, 2 acyl side, 3 side chain; linkers in the order of their positions; H or OH if unused. Non-standard residues stand in square brackets, D forms with d. pY = N[C@@H](Cc1ccc(OP(=O)(O)O)cc1)C(=O)O; Cysteamide = C(CS[*:3])N[*:1]; Dap = NC[C@H](N)C(=O)O
Target: GST-Lck-SH2 (UniProt P06239)
Experiment: fluorescence change on Src-catalysed phosphorylation in presence of GST-Lck-SH2 (1.25 µM peptide, 5 µM Lck-SH2, 12 nM Src, 1 mM ATP)

Sequence of GST-Lck-SH2 (P06239 127-224): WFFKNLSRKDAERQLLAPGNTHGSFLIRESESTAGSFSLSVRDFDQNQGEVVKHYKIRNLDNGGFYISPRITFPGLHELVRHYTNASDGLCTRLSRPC

Fold change in fluorescence intensity: 0.6 fold
Binder: Ac-EEEI[pY][Dap](dapoxyl)EIEA-Cysteamide (not fully specified)

From patent US20060211075A1, “Enzyme sensors including environmentally sensitive or fluorescent labels and uses thereof” (The Albert Einstein College of Medicine of Yeshiva …, priority 2005, published 2006)
